The values below come from patent US20210395361A1 (Alector, published 2021).

Some results are limits rather than exact numbers.

Experiment [1] deals with T1, Histidine-tagged human Siglec-5 (NovoProtein) (human, UniProt O15389 17-434, limits assumed).
T1 construct: Bought soluble protein; also called His-tagged human Siglec-5; not shown: histidine tag
T1 sequence: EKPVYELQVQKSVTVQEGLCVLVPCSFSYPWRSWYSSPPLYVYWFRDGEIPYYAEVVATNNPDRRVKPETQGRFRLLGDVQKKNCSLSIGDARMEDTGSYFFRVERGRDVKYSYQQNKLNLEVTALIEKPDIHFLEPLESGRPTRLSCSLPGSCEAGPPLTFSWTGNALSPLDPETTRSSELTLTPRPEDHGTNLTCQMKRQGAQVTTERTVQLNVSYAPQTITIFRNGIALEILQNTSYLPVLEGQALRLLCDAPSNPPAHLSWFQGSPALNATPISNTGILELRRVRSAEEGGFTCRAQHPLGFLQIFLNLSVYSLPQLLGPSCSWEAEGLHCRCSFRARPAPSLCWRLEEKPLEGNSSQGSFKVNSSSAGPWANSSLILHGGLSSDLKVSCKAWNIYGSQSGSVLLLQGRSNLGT
Briefly: array SPR, antibody immobilized, His-tagged human Siglec-5 (0-500 nM) in solution; apparent affinity. How it is done:
The apparent binding affinities of the anti-Siglec-5 antibodies were measured by array surface plasmon resonance (SPR), according to standard techniques (Abdiche, et al. (2016) MAbs 8:264-277). Briefly, anti-Siglec-5 antibodies were immobilized on a HC 30M chip at four different densities, at antibody concentration of 10 μg/mL, 2.5 μg/mL, 0.63 μg/mL, and 0.16 μg/mL. Varying concentrations (0-500 nM) of Histidine-tagged human Siglec-5 or cynomolgus Siglec-5 (NovoProtein) were then bound to the captured anti-Siglec-5 surface (5 min injection time, 15 min dissociation time) in HBS-EP⁺/1 mg/mL BSA running buffer. Kinetic analysis was performed using Carterra software to extract association and dissociation rate constants (kₐ and kd, respectively) for each antibody. Apparent affinity constants (KD) were calculated from the ratio kd/kₐ. None of the anti-Siglec-5 antibodies bound to cynomolgus Siglec-5 protein.

Experiment [2] has as its target T2, human Siglec-14 (human, UniProt Q08ET2 17-396).
T2 construct: also called CHO-S14; CHO-S hSiglec-14
T2 sequence: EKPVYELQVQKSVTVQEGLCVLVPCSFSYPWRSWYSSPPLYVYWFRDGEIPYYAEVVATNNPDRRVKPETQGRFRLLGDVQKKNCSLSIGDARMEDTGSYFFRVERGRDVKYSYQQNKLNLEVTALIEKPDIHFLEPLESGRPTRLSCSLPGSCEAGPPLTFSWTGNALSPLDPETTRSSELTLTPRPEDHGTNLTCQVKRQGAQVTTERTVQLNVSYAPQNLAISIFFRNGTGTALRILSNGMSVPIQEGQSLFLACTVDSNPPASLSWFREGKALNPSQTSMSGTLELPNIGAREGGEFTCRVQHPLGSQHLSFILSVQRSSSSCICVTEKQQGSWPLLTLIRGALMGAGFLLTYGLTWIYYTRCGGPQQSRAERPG
Description: FACS, CHO cells stably transfected with human Siglec-14 (CHO-S14), fluorescent secondary antibody; y-axis Binding (Fold over background); antibody concentration not shown. As to the method: The anti-Siglec-5 antibodies were evaluated for their ability to bind to CHO cells which were stably transfected with human Siglec-5 (CHO-S5) or human Siglec-14 (CHO-S14). The anti-Siglec-5 antibodies were also evaluated for their ability to bind to primary human neutrophils. Cells were incubated with various dilutions of the anti-Siglec-5 antibodies for 30 minutes on ice in the dark, followed by a 30-minute incubation with a fluorescently-conjugated anti-human IgG secondary antibody. Cells were washed twice in FACS buffer (PBS+2% FBS, 2 mM EDTA), and flow cytometry was performed on a BD FACS Canto. Data were analyzed using FlowJo software (Ashland, Oreg.). In the figures, “hIgG1” and “mIgG1” refer to isotype control antibodies, and “S5/14 1A5” refers to a commercially available antibody that binds both Siglec-5 and Siglec-14 (BioLegend, clone 1A5).

Experiment [3] has as its target T2, human Siglec-14. Briefly: FACS titration, CHO-S hSiglec-14 cells, anti-human IgG secondary; y-axis Fold over isotype, x-axis Antibody (nM), log scale; the same flat line on CHO-S Parental cells. How it is done: (§1) CHO cells were incubated with increasing concentrations of anti-Siglec-5 antibody, as indicated on the x-axis of each plot. The binding of anti-Siglec-5 antibodies to the surface of CHO cells was then measured by FACS. The y-axis provides the binding of each indicated anti-Siglec-5 antibody to the surface of CHO cells relative to hIgG1 isotype control antibodies. S5-174-H2L1 refers to antibody S5-174-H3; S5-174-H3L1 refers to antibody S5-174-H5; S5-174-H3L2 refers to antibody S5-174-H6; S5-174-H4L1 refers to antibody S5-174-H7; S5-174-H4L2 refers to antibody S5-174-H8; S5-G03-H2L1 refers to antibody S5-G-03-H4; S5-G03-H2L2 refers to antibody S5-G-03-H5; S5-G03-H3L1 refers to antibody S5-G-03-H7; S5-G03-H3L2 refers to antibody S5-G-03-H8; and S5-G03-H3L3 refers to antibody S5-G-03-H9.
(§2) Various anti-Siglec-5 antibodies of the present disclosure were evaluated for their ability to bind to CHO cells which were stably transfected with human Siglec-5 (CHO-S5) or human Siglec-14 (CHO-S14). Cells were incubated with various dilutions of anti-Siglec-5 antibodies for 30 minutes on ice in the dark, followed by a 30-minute incubation with a fluorescently conjugated anti-human IgG secondary antibody. Cells were then washed twice in FACS buffer (PBS+2% FBS, 2 mM EDTA), and flow cytometry was performed on a BD FACS Canto. Data were analyzed using FlowJo software (Ashland, Oreg.). In FIG. 9, hIgG1 refers to isotype control antibodies; S5-174-H2L1 refers to antibody S5-174-H3; S5-174-H3L1 refers to antibody S5-174-H5; S5-174-H3L2 refers to antibody S5-174-H6; S5-174-H4L1 refers to antibody S5-174-H7; S5-174-H4L2 refers to antibody S5-174-H8; S5-G03-H2L1 refers to antibody S5-G-03-H4; S5-G03-H2L2 refers to antibody S5-G-03-H5; S5-G03-H3L1 refers to antibody S5-G-03-H7; S5-G03-H3L2 refers to antibody S5-G-03-H8; and S5-G03-H3L3 refers to antibody S5-G-03-H9.

A further experiment has as its target T3, human Siglec-5 (human, UniProt O15389 17-551).
T3 construct: also called CHO-S5; CHO-S hSiglec-5
T3 sequence: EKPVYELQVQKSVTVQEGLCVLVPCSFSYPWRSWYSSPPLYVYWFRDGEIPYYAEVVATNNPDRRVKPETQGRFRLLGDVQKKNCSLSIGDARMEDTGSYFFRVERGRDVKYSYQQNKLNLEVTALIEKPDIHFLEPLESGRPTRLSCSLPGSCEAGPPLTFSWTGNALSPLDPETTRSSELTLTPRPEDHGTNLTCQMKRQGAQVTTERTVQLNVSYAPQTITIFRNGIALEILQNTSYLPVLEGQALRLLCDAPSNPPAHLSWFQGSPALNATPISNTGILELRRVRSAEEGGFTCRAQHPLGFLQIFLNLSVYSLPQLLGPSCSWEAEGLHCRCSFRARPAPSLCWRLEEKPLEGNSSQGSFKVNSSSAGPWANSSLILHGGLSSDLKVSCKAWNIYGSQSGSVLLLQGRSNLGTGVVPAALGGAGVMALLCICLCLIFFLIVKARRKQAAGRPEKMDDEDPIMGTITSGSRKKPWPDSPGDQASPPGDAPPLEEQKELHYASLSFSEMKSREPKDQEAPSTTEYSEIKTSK
Description: FACS titration, CHO-S hSiglec-5 cells, anti-human IgG secondary; y-axis Fold over isotype, x-axis Antibody (nM), log scale. How it is done:
as §1, §2

B1: S5-G-07 (antibody, V domains shown)
VH: QAYLQQSGAELARPGASVKMSCKASGYTFSSYTMYWVKQRPGQGLEWIGYINPSSGYTEYNQKFKDKATLTADKSSSTAYMQLISLTSEDSAVYYCARSDSKGDYWGQGTTLTVSS
VL: DVVMTQSPSSLSASLGERVSLTCRASQDIGNSLNWLQQEPDGTIKRLISATSSLDSGVPKRFSGSRSGSDYSLTISSLESEDFVDYYCLQYASSPLTFGAGTKLELK
notes: Mouse-derived variable domains; expressed in mammalian cells as full antibody; hIgG1 isotype control; also called SG-5-07
Regarding B1, in experiment [1], the Kd was at most 0.42 nM, the off-rate (koff) is at most 1e-05 s⁻¹ and the kon turned out to be 24000 M⁻¹ s⁻¹. Besides, in the experiment with human Siglec-14 [2], the binding result was “no binding”.

B2: S5-G-03-H4 (antibody, V domains shown)
VH: EVQLLESGGGLVQPGGSLRLSCAASGFTFSTYGMSWVRQAPGKGLELVATINSNGDNTYYADSVKGRFTISRDNSKNTLYLQMNSLRAEDTAVYYCARAWPSITTVFAPYTLDYWGQGTLVTVSS
VL: DIQMTQSPSSLSASVGDRVTITCRASSSVSSSFLHWYQQKPGKAPKLLIYSTSNLASGVPSRFSGSGSGTDFTLTISSLQPEDFATYYCQQYSGYPLTFGQGTKLEIK
notes: Humanized variant of S5-G-03; also called S5-G03-H2L1
For the molecule B2, the binding result was “no binding (tested: last point between 1 and 10 nM)” in the experiment with human Siglec-14 [3]; “binds” with human Siglec-5.

B3: S5-G-03-H5 (antibody, V domains shown)
VH: EVQLLESGGGLVQPGGSLRLSCAASGFTFSTYGMSWVRQAPGKGLELVATINSNGDNTYYADSVKGRFTISRDNSKNTLYLQMNSLRAEDTAVYYCARAWPSITTVFAPYTLDYWGQGTLVTVSS
VL: DIQMTQSPSSLSASVGDRVTITCRASSSVSSSFLHWYQQKPGKAPKLWIYSTSNLASGVPSRFSGSGSGTDYTLTISSLQPEDFATYYCQQYSGYPLTFGQGTKLEIK
notes: Humanized variant of S5-G-03; also called S5-G03-H2L2; SG-5-03-H5
Turning to B3, the binding result is “no binding (tested: last point between 1 and 10 nM)” in the experiment with human Siglec-14 [3]; “binds” with human Siglec-5.

B4: S5-G-03-H9 (antibody, V domains shown)
VH: EVQLLQSGGGLVQPGGSLRLSCAASGFTFSTYGMSWVRQAPGKGLELVATINSNGDNTYYADSVKGRFTISRDNSKNTLYLQMNSLRAEDTAVYYCARAWPSITTVFAPYTLDYWGQGTLVTVSS
VL: DIQLTQSPSSLSASVGDRVTMTCRASSSVSSSFLHWYQQKPGKAPKLWIYSTSNLASGVPSRFSGSGSGTDYTLTISSVQPEDFATYYCQQYSGYPLTFGQGTKLEIK
notes: Humanized variant of S5-G-03; also called S5-G03-H3L3
For B4, the binding result in the experiment with human Siglec-14 [3] was “no binding (tested: last point between 1 and 10 nM)”; with human Siglec-5 it was “binds”.

B5: S5-G-03-H7 (antibody, V domains shown)
VH: EVQLLQSGGGLVQPGGSLRLSCAASGFTFSTYGMSWVRQAPGKGLELVATINSNGDNTYYADSVKGRFTISRDNSKNTLYLQMNSLRAEDTAVYYCARAWPSITTVFAPYTLDYWGQGTLVTVSS
VL: DIQMTQSPSSLSASVGDRVTITCRASSSVSSSFLHWYQQKPGKAPKLLIYSTSNLASGVPSRFSGSGSGTDFTLTISSLQPEDFATYYCQQYSGYPLTFGQGTKLEIK
notes: Humanized variant of S5-G-03; also called S5-G03-H3L1
In the case of B5, the binding result with human Siglec-14 [3] was “no binding (tested: last point between 1 and 10 nM)”; with human Siglec-5, “binds”.

B6: S5-G-10 (antibody, V domains shown)
VH: QAYLQQSGAELVKPGASVKLSCKASGYIFTEYTIHWVKQRSGQGLEWIGWFYPGSGSIKYNEKFKDKATLTADKSSSTVYMELSRLTSEDSAVYFCATHERAAQAAWSAYWGQGTLVTVSA
VL: DVQMNQSPASLSASVGETVTITCRASGNIHNYLAWYQQKQGKSPQLLVYNAKTLTDGVPSRFSGSGSGTQYSLKINTLQPEDFGSYYCQHFWSTPYTFGGGTKLEMK
notes: Mouse-derived variable domains; expressed in mammalian cells as full antibody; hIgG1 isotype control
As for B6, in experiment [1], the Kd was found to be 79 nM, the koff was found to be 0.00068 s⁻¹ and the kon is 8600 M⁻¹ s⁻¹. The binding result in the experiment with human Siglec-14 [2] was “no binding”.

B7: S5-172 (antibody, V domains shown)
VH: QAYLQQSGPELVKPGASVKVSCKASGYSLTDYNMYWVKQSHGKSLEWIGYIDSYNGGTRYNQKFKGKATLTVDKSSSTAFMHLNSLTSEDSAVYYCAREGFGYDDREWFAYWGQGTLVTVSA
VL: DIVLTQTPLSLAVSVGEKVTMNCKSSQSLLYSTNQMTFLAWYQQKPGQSPKLLIYWASTRESGVPDRFTGSGSGTDFTLTISSVKAEDLAIYYCQQFYTYPFTFGSGTKLEIR
notes: as for B6
Consider B7, for which, in experiment [1], the Kd worked out at 1.5 nM, the koff is 0.00053 s⁻¹ and the kon worked out at 350000 M⁻¹ s⁻¹. Also, the binding result with human Siglec-14 [2] is listed as “no binding”.

B8: S5-190 (antibody, V domains shown)
VH: QAYLQQSGPELVKPGASVKVSCKASGYSLTDYNMYWVKQSHGKSLEWIGYIDSYNGGTRYNQKFKGKATLTVDKSSSTAFMHLNSLTSEDSAVYYCAREGFGYDDREWFAYWGQGTLVTVSA
VL: DIQMTQTPSSLAVSVGEKVTLSCKSSQSLLYSTNQMNFLAWYQQKPGQSPKLLIYWASTRESGVPDRFAGSGSGTDFTLTISSVKAEDLAVYYCQQFYSYPFTFGSGTELEIK
notes: Mouse-derived variable domains; same VH entry as S5-172; expressed in mammalian cells as full antibody; hIgG1 isotype control
For B8, in experiment [1], the Kd worked out at 0.85 nM, the koff was determined as 0.00046 s⁻¹ and the kon was determined as 540000 M⁻¹ s⁻¹. Also, in the experiment with human Siglec-14 [2], the binding result was “no binding”.
